T1: human FcγRIIa H extracellular domain (human, UniProt P12318 34-217)
T1 construct: extracellular domain; Made by the method of WO2014104165; also called hFcγR IIa H; FcyRIIaH
T1 sequence (looked up): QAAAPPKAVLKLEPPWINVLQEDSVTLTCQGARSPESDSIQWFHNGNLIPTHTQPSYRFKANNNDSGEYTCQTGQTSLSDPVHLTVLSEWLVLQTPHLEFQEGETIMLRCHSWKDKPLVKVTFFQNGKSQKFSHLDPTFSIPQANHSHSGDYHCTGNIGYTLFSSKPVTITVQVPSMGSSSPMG


Experiments:
[1] = molecular target: hFcyRIIIaV on hFcyRIIIaV-expressing Jurkat cells (human, UniProt P08637 17-254); test: cell-based or functional assay
hFcyRIIIaV on hFcyRIIIaV-expressing Jurkat cells, sequence (P08637 17-254): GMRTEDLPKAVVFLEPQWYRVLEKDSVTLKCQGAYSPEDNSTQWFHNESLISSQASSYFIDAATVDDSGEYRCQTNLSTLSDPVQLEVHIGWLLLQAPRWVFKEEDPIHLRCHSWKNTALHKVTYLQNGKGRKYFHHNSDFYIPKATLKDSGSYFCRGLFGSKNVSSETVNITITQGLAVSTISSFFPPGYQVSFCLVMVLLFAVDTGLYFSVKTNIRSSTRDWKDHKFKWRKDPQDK

[2] = molecular target: T1, human FcγRIIa H extracellular domain; test: SPR; KD for FcγRIIb divided by KD for this FcγR
[3] = molecular target: T2, human FcγRIIIa F extracellular domain (human, UniProt P08637 17-208); test: SPR; KD for FcγRIIb divided by KD for this FcγR
T2 construct: extracellular domain; Made by the method of WO2014104165; also called hFcγR IIIa F; FcyRIIIaF
T2 sequence (P08637 17-208): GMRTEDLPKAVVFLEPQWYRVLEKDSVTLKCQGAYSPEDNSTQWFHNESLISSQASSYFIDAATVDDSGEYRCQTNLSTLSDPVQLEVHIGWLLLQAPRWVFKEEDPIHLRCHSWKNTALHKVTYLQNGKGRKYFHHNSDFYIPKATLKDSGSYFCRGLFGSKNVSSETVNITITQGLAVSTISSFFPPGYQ

Row | Binder | EC50 value (µg/mL), ADCC reporter bioassay (fold induction of luminescence), Hepa1-6/hEREG target cells [1] [µg/mL] | A/I ratio (KD for FcγRIIb divided by KD for each FcyR) [2] | A/I ratio (KD for FcγRIIb divided by KD for each FcyR) [3]
1 | H240-G1d/L73-k0 (antibody, human IgG1, kappa, Anti-human Epiregulin antibody with the human IgG1 constant region G1d (C-terminal Gly and Lys removed); the text gives 279; also called EGL-G1d) heavy: not shown light: DIQMTQSPSSLSASVGDRVTITCRASQDIHKYIAWYQQKPGQAPRLLIQYTSTLQPGVPSRFSGSGSGTDYTFTISSLQPEDIATYYCLQYEQLRTFGGGTKVEIKRTVAAPSVFIFPPSDEQLKSGTASVVCLLNNFYPREAKVQWKVDNALQSGNSQESVTEQDSKDSTYSLSSTLTLSKADYEKHKVYACEVTHQGLSSPVTKSFNRGEC | 0.0463 | 8.9 | 3.4
2 | H240-Kn032/L73-k0//H240-Hl032/L73-k0 (antibody, human IgG1, kappa, also called EGL-SDALIE; SDALIE) heavy 1: QDQLVQSGAEVKKPGASVKVSCKASGFNIKDTYIQWVRQAPGQGLEWMGRIDPLRKQTKYREKFEGRVTITADTSTNTAYMELSSLRSEDTAVYYCVRSGREFDYWGQGTLVTVSSASTKGPSVFPLAPSSKSTSGGTAALGCLVKDYFPEPVTVSWNSGALTSGVHTFPAVLQSSGLYSLSSVVTVPSSSLGTQTYICNVNHKPSNTKVDKKVEPKSCDKTHTCPPCPAPELLGGPDVFLFPPKPKDTLMISRTPEVTCVVVDVSHEDPEVKFNWYVDGVEVHNAKTKPREEQYNSTYRVVSVLTVLHQDWLNGKEYKCKVSNKALPLPEEKTISKAKGQPREPQVCTLPPSRDELTKNQVSLWCLVKGFYPSDIAVEWESNGQPENNYKTTPPVLDSDGSFFLYSKLTVDKSRWQQGNVFSCSVMHEALHNHYTQKSLSLSP heavy 2: QDQLVQSGAEVKKPGASVKVSCKASGFNIKDTYIQWVRQAPGQGLEWMGRIDPLRKQTKYREKFEGRVTITADTSTNTAYMELSSLRSEDTAVYYCVRSGREFDYWGQGTLVTVSSASTKGPSVFPLAPSSKSTSGGTAALGCLVKDYFPEPVTVSWNSGALTSGVHTFPAVLQSSGLYSLSSVVTVPSSSLGTQTYICNVNHKPSNTKVDKKVEPKSCDKTHTCPPCPAPELLGGPDVFLFPPKPKDTLMISRTPEVTCVVVDVSHEDPEVKFNWYVDGVEVHNAKTKPREEQYNSTYRVVSVLTVLHQDWLNGKEYKCKVSNKALPLPEEKTISKAKGQPREPQVYTLPPSRCELTKNQVSLSCAVKGFYPSDIAVEWESNGQPENNYKTTPPVLDSDGSFFLVSKLTVDKSRWQQGNVFSCSVMHEALHNHYTQKSLSLSP light: DIQMTQSPSSLSASVGDRVTITCRASQDIHKYIAWYQQKPGQAPRLLIQYTSTLQPGVPSRFSGSGSGTDYTFTISSLQPEDIATYYCLQYEQLRTFGGGTKVEIKRTVAAPSVFIFPPSDEQLKSGTASVVCLLNNFYPREAKVQWKVDNALQSGNSQESVTEQDSKDSTYSLSSTLTLSKADYEKHKVYACEVTHQGLSSPVTKSFNRGEC | 0.00178 | 2.2 | 98.7

From patent EP4361176A1 (CHUGAI SEIYAKU KABUSHIKI KAISHA, dated 2024)
